Values of other authors in PMC8694941 (RSC Advances, 2021).

Settings: commonly used comparator tracer

Substance: [^68Ga]Ga-DOTA-c(RGDfK) (head to tail)
- partition coefficient (log D): around −3.43
